What all share (test): cell-based or functional assay
The target in assay [1] is human Kv1.2 potassium channel (α-subunit) (human), P16389.
The target of assay [2] is T1, human Kv1.6 potassium channel (α-subunit) (human), P17658.
T1 chain: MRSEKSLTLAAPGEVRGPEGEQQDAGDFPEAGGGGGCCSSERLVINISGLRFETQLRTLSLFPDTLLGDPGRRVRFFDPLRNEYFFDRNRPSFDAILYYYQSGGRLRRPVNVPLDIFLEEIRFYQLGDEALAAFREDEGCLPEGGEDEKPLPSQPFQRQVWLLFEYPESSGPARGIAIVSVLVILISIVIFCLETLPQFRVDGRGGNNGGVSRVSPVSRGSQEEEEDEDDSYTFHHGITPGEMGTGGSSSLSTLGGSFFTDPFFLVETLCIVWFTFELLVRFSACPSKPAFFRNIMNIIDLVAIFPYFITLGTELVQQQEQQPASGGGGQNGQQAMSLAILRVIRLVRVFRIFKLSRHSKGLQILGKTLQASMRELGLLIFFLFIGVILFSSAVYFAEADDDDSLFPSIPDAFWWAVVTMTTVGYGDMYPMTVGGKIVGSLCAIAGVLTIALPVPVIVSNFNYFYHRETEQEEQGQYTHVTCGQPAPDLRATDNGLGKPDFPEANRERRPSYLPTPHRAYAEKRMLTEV

For assay [3], the target named is T2, human Kv1.1 potassium channel (α-subunit) (human), Q09470.
T2 chain: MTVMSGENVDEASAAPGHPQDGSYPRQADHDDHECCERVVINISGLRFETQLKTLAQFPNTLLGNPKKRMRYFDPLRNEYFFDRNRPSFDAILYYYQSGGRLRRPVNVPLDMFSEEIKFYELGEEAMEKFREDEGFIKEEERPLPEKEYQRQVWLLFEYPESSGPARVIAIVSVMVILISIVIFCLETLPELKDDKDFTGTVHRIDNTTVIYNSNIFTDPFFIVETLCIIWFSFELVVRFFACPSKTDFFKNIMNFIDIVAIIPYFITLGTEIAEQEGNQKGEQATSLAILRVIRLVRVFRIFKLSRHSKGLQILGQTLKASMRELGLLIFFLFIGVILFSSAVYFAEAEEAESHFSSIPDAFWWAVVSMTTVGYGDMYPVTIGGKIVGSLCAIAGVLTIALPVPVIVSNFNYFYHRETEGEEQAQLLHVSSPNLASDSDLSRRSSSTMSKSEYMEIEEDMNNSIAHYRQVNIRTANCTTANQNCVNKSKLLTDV

Assay [4] deals with human Kv1.3 potassium channel (potassium voltage-gated channel subfamily A member 3, α-subunit) (human), P22001.
Sequence of human Kv1.3 potassium channel (potassium voltage-gated channel subfamily A member 3, α-subunit) (human), P22001 (P22001 whole entry): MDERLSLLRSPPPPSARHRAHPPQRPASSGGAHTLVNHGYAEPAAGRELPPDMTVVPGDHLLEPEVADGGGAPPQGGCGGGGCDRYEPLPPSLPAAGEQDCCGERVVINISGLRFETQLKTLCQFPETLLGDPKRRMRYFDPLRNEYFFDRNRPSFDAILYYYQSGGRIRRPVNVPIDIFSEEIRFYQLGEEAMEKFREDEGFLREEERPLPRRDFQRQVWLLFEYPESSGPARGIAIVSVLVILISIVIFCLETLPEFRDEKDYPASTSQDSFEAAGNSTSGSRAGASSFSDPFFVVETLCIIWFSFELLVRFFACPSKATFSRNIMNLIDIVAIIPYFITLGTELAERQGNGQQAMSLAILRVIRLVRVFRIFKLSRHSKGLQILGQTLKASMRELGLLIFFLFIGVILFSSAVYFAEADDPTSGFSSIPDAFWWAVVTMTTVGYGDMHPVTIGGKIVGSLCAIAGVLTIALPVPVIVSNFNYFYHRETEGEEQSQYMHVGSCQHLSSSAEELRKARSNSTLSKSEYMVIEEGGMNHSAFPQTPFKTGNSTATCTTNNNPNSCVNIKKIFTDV

Sequence of human Kv1.2 potassium channel (α-subunit) (human), P16389 (P16389 whole entry): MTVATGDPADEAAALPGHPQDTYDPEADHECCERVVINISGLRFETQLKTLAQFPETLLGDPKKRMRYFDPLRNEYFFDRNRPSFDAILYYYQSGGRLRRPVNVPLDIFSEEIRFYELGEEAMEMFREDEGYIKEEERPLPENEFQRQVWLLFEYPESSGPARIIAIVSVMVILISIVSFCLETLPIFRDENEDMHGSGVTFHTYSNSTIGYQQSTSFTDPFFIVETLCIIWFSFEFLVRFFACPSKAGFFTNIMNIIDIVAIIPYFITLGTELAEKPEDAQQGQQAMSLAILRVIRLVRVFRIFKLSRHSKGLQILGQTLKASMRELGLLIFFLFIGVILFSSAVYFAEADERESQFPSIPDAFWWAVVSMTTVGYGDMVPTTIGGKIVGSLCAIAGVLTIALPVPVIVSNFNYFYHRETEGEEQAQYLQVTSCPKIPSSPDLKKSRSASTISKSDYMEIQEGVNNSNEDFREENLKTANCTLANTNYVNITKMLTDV

In assay [1], QMDMRCSASVECKQKCLKAIGSIFGKCMNKKCKCYPR (modifications not checked) [Compound 1 (PaT1)] yielded a Potency IC50 (patch clamp) of 518 nM and a Selectivity Kv1.2/Kv1.3 of 1360. In assay [2], this molecule came in with a Potency IC50 (patch clamp) above 3000 nM and a Selectivity Kv1.6/Kv1.3 above 7900. In assay [3], this molecule gave a Potency IC50 (patch clamp) above 3000 nM and a Selectivity Kv1.1/Kv1.3 above 7900. For the same molecule, in assay [4], the Potency IC50 (patch clamp) came out at 0.38 nM and the anti-CD3 PBMC/IL-2 IC50 was found to be 0.09 nM.

The values above are taken from patent publication US20220251151A1.
